Assay results reported in patent publication CN101007849A.
Values belong to the molecule of their own block, whether it stands above or below them.

How the values were obtained:
[1] = target: 人TPO受体(MPL)，表达于Ba/F3细胞 (human) (UniProt P40238); test: cell-based or functional assay
[2] = target: 人TPO受体(MPL)，表达于Ba/F3细胞 (human) (UniProt P40238); test: cell-based or functional assay; remark: listed apart in the source

ED50，BaF/mpl细胞增殖(WST-8) [1]: 0.027 nM
Molecule: 人TPO(R&D Systems) (from UniProt P40225 22-353) (ligand)

ED50，TPO样激动剂活性(BaF/mpl细胞增殖，WST-8) [2]: 29 nM
B1: 抗体12B5(IgG) (antibody, from another filing)
scFv: QVQLVQSGGGLVRPGGSLSLSCAVSGITLRTYGMHWVRQAPGKGLEWVAGISFDGRSEYYADSVQGRFTISRDSSKNTLYLQMNSLRAEDTAVYYCARGAHYGFDIWGQGTMVTVSSGGGGTGGGGSGGGGSDIQMTQSPSTLSASIGDRVTITCRASEGIYHWLAWYQQKPGKAPKLLIYKASSLASGAPSRFSGSGSGTDFTLTISSLQPDDFATYYCQQYSNYPLTFGGGTKLEIK
